# From US20240301038A1
# B1: AB-009614 (antibody, V domains shown)
# VH: QVQLVESGGGVVQPGRSLRLSCAASGFTFSSYGMHWVRQAPGKGLEWVAVISYDGSNKYYADSVKGRFTISRDNSKNTLYLQMNSLRAEDTAVYYCAKDQKYYDILTGYYRSTYYYYYYGMDVWGQGTTVTVSS
# VL: not shown
# B2: AB-009346 (antibody, V domains shown)
# VH: EVQLVESGGGVVRPGGSLRLSCAASGFTFDDYGMSWVRQAPGKGLEWVSGINWNGGSTGYADSVKGRFTISRDNAKNSLYLQMNSLRAEDTALYYCARWPLLGISGYYHYYMDVWGKGTTVTVSS
# VL: QSALTQPRSVSGSPGQSVTISCTGTSSDVGGYNYVSWYQQHPGKAPKLMIYDVSKRPSGVPDRFSGSKSGNTASLTISGLQAEDEADYYCCSYAGSYTLLFGGGTKLIVL
# B3: AB-009615 (antibody, V domains shown)
# VH: QVQLVESGGGVVQPGRSLRLSCAASGFTFSSYGMHWVRQAPGKGLEWVAVIWYDGSNKYYADSVKGRFTISRDNSKNTLYLQMNSLRAEDTAVYYCAKVGSPYCSGGSCYSGYFDYWGQGTLVTVSS
# VL: not shown
# B4: AB-009620 (antibody, V domains shown)
# VH: QITLKESGPTLVKPTQTLTLTCTFSGFSLSTSGVGVGWIRQPPGKALEWLALIYWDDDKRYSPSLKSRLTITKDTSKNQVVLTMTNMDPVDTATYYCAHHEVATVFDYWGQGTLVTVSS
# VL: QSALTQPASVSGSPGQSITISCTGTSSDVGAYNYVSWYQQHPGKAPKLMIYEVSNRPSGVSNRFSGSKSGNTASLTISGLQAEDEADYYCSSYTSSSTVFGGGTKLTVL
# B5: AB-009661 (antibody, V domains shown)
# VH: QVQLVESGGGVVQPGRSLRLSCAASGFTFSSYGMHWVRQAPGKGLEWVAVISYDGSNKYYADSVKGRFTISRDNSKNTLYLQMNSLRAEDTAVYYCAKDYGDYGGMDVWGQGTTVTVSS
# VL: not shown
# B6: AB-009734 (antibody, V domains shown)
# VH: QVHLVQSGAEVKTPGASVRVSCKASGYTFTSHYMHWVRQAPGQGLEWMGLINPSGSGTAYPQHFQGRVTMTRDTSTTTDYMDLSSLRSEDTAMYFCARMERSGAFDLWGQGTMVTVSS
# VL: EIVLTQSPGTLSLSPGERATLSCRASQTISSRYLAWYYQKPGQAPRLLIQGSSIRATGIPDRFSGSGSGTDFTLTISRLEPEDFAVYYCQHYGSSPPMYTFGQGTKLEIK
# B7: AB-009769 (antibody, V domains shown)
# VH: EVQLVESGGGLVQPGGSLRLSCAASGFTFSSYWMSWVRQAPGKGLEWVANIKQDGSEKYYVDSVKGRFTISRDNAKNSLYLQMNSLRAEDTAVYYCARSPEVLWFGDPVLDNWFDPWGQGTLVTVSS
# VL: SYELTQPPSVSVSPGQTARITCSGDALPKQYAYWYQQKPGQAPVLVIYKDSERPSGIPERFSGSSSGTTVTLTISGVQAEDEADYYCQSADSSGTYPVVFGGGTKLTVL
# B8: AB-009281 (antibody, V domains shown)
# VH: EVQLVETGGGLIQPGGSLRLSCAASGFTVSSNYMSWVRQAPGKGLEWVSVIYSGGSTYYADSVKGRFTISRDNSKNTLYLQMNSLRAEDTAVYYCARDLYYYGMDVWGQGTTVTVSS
# VL: DIQLTQSPSFLSASVGDRVTITCRASQGISSYLAWYQQKPGKAPKLLIYAASTLQSGVPSRFSGSGSGTEFTLTISSLQPEDFATYYCQQLNSYPTFGQGTKVEIK
# B9: AB-009358 (antibody, V domains shown)
# VH: QVHLVQSGAEVKKPGASVKISCKASGYTFTSYYVHWVRQAPGQGLEWMGIIKPSGAGTIYAQKFQGRVTMTRDTSTSTVYMELSSLISEDTAVYYCARGGGVTDRDYWGQGTLVTVSS
# VL: QSALTQEASVSATVGQKVTLSCTGNTNNIGGYAVGWHQQISHGAPKTVMFGNSLPSGIPDRFSGSKSGTTASLIISGLQPEDEADYYCSTWDSSLGAVLFGGGTKLTVL
# Target: SARS-CoV-2 native Spike (S) trimer (Acro Biosystems) (SARS-CoV-2), P0DTC2
# Assay: ELISA on spike trimer
# Details: remark: other sources report otherwise
row,Binder,OD (450 nm)
1,B1,0.361 OD (450 nm)
2,B2,2.55 OD (450 nm)
3,B3,2.8 OD (450 nm)
4,B4,2.7 OD (450 nm)
5,B5,2.86 OD (450 nm)
6,B6,3.57 OD (450 nm)
7,B7,2.87 OD (450 nm)
8,B8,2.6 OD (450 nm)
9,B9,2.76 OD (450 nm)
